Data as given in patent publication US20190170753A1 (ICAHN SCHOOL OF MEDICINE AT MOUNT SINAI, published 2019).
Where no end group is shown, it is not given here.

How the values were obtained:
[1] = biological target: T1, C113WT biotin labeled HCV core peptide (hepatitis C virus, also: biotin labeled, position not given here); assay: capture EIA with biotin peptide
T1 peptide: RGSRPSWGPTD

[2] = biological target: T2, C113T109N biotin labeled HCV core peptide (hepatitis C virus, also: biotin labeled, position not given here); assay: capture EIA with biotin peptide
T2 construct: also called C113T110N
T2 peptide: RGSRPSWGPND

[3] = biological target: T3, HCV core peptide 48 (hepatitis C virus, HELM PEPTIDE1{[O=C1N[C@H]2[C@H](CS[C@H]2CCCCC(=O)[*:2])N1].S.G.S.G.G.W.L.L.S.P.R.G.S.R.P.S.W.G.P.[am]}$$$$V2.0; SMILES …); assay: peptide EIA, 2 ug/mL IgG (summary table)
T3 construct: also called aa 95-109
T3 peptide: SGSGGWLLSPRGSRPSWGP
Procedure: (§1) The coated plates were kept dry in a sealed foil pouch and stored at <10 degrees C. until ready for use. A peptide coated plate for each test antibody was blocked using 3% BSA in PBS with 0.5% Tween 20. The blocked plates were washed with distilled water and a 2 ug/mL solution of purified IgG from each test sample diluted in BSA block solution was added to each peptide coated well of the blocked plate and allowed to incubate at room temperature for at least one hour. Following incubation the plates were washed with distilled water. A 200 ng/mL solution of peroxidase labeled F(ab′)2 fragment goat anti-mouse IgG Fc fragment specific (Jackson Immunoresearch) in BSA block solution was added to all wells and incubated at room temperature for 30 minutes. The plates were washed with distilled water and o-phenylenediamine substrate was used as the chromagen to generate signal. Plates were read at 492 nm and the results were analyzed.

[4] = biological target: T4, HCV core peptide 50 (hepatitis C virus, HELM PEPTIDE1{[O=C1N[C@H]2[C@H](CS[C@H]2CCCCC(=O)[*:2])N1].S.G.S.G.S.P.R.G.S.R.P.S.W.G.P.T.D.P.R.[am]}$$$$V2.0; SMILES …); assay: peptide EIA, 2 ug/mL IgG (summary table)
T4 construct: also called aa 99-113
T4 peptide: SGSGSPRGSRPSWGPTDPR
Procedure: as §1

[5] = biological target: T5, HCV core peptide 51 (hepatitis C virus, HELM PEPTIDE1{[O=C1N[C@H]2[C@H](CS[C@H]2CCCCC(=O)[*:2])N1].S.G.S.G.R.G.S.R.P.S.W.G.P.T.D.P.R.R.R.[am]}$$$$V2.0; SMILES …); assay: peptide EIA, 2 ug/mL IgG (summary table)
T5 peptide: SGSGRGSRPSWGPTDPRRR
Procedure: as §1

[6] = biological target: T6, HCV core peptide 52 (hepatitis C virus, HELM PEPTIDE1{[O=C1N[C@H]2[C@H](CS[C@H]2CCCCC(=O)[*:2])N1].S.G.S.G.S.R.P.S.W.G.P.T.D.P.R.R.R.S.R.[am]}$$$$V2.0; SMILES …); assay: peptide EIA, 2 ug/mL IgG (summary table)
T6 peptide: SGSGSRPSWGPTDPRRRSR
Procedure: as §1

[7] = biological target: T7, HCV core peptide 53 (hepatitis C virus, HELM PEPTIDE1{[O=C1N[C@H]2[C@H](CS[C@H]2CCCCC(=O)[*:2])N1].S.G.S.G.P.S.W.G.P.T.D.P.R.R.R.S.R.N.L.[am]}$$$$V2.0; SMILES …); assay: peptide EIA, 2 ug/mL IgG (summary table)
T7 peptide: SGSGPSWGPTDPRRRSRNL
Procedure: as §1

[8] = biological target: T8, HCV core peptide 54 (hepatitis C virus, HELM PEPTIDE1{[O=C1N[C@H]2[C@H](CS[C@H]2CCCCC(=O)[*:2])N1].S.G.S.G.W.G.P.T.D.P.R.R.R.S.R.N.L.G.K.[am]}$$$$V2.0; SMILES …); assay: peptide EIA, 2 ug/mL IgG (summary table)
T8 peptide: SGSGWGPTDPRRRSRNLGK
Procedure: as §1

[9] = biological target: T9, HCV core peptide 55 (hepatitis C virus, HELM PEPTIDE1{[O=C1N[C@H]2[C@H](CS[C@H]2CCCCC(=O)[*:2])N1].S.G.S.G.P.T.D.P.R.R.R.S.R.N.L.G.K.V.I.[am]}$$$$V2.0; SMILES …); assay: peptide EIA, 2 ug/mL IgG (summary table)
T9 construct: also called aa 109-123
T9 peptide: SGSGPTDPRRRSRNLGKVI
Procedure: as §1

[10] = biological target: T10, Mut1T110N biotin labeled HCV core peptide (hepatitis C virus, biotin labeled (position not given)); assay: capture EIA; Ab 0.977 ng/mL; bt-peptide 500 ng/mL
T10 peptide: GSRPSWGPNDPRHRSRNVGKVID

[11] = biological target: T11, Mut6T110S biotin labeled HCV core peptide (hepatitis C virus, biotin labeled (position not given)); assay: capture EIA; Ab 0.977 ng/mL; bt-peptide 500 ng/mL
[12] = biological target: T1, C113WT biotin labeled HCV core peptide; assay: capture EIA; Ab 0.977 ng/mL; bt-peptide 500 ng/mL
Procedure: (§2) Assay wells were coated with sheep anti-mouse IgG Fc specific antibody and incubated overnight. The coating solution was then removed; the wells blocked using BSA/tween in PBS and then washed with dH2O. […] Next, biotin labeled peptides (diluted to 500 ng/mL in block) were added, the plates incubated for 10 minutes while shaking at 700 rpm and then washed. Peroxidase conjugated streptavidin (diluted to 200 ng/mL in block) was then added to all assay wells, incubated for 20 minutes while shaking at 700 rpm and then washed. Finally, color was developed using OPD and signal quenched using 1N H₂SO₄. Signal was read at 492 nm.

[13] = biological target: T2, C113T109N biotin labeled HCV core …; assay: capture EIA; Ab 0.977 ng/mL; bt-peptide 500 ng/mL
Procedure: as §2

[14] = biological target: T12, 92-133 biotin labeled HCV core peptide (hepatitis C virus, UniProt Q9WMX2 92-133, chain 1: biotin label (bt-pep). Its position and any spacer are not visible in the passages shown.); assay: capture EIA; Ab 0.977 ng/mL; bt-peptide 500 ng/mL
T12 construct: Only the label 92-133 is printed
T12 peptide: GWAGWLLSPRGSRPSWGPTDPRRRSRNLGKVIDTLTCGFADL
Procedure: as §2

[15] = biological target: T13, WT1STHV biotin labeled HCV core peptide (hepatitis C virus, biotin labeled (position not given)); assay: capture EIA; Ab 0.977 ng/mL; bt-peptide 500 ng/mL
T13 peptide: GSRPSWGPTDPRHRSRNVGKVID

[16] = biological target: T10, Mut1T110N biotin labeled HCV core …; assay: capture EIA; Ab 15.625 ng/mL; bt-peptide 500 ng/mL
Procedure: as §2

[17] = biological target: T11, Mut6T110S biotin labeled HCV core …; assay: capture EIA; Ab 15.625 ng/mL; bt-peptide 500 ng/mL
Procedure: as §2

[18] = biological target: T1, C113WT biotin labeled HCV core peptide; assay: capture EIA; Ab 15.625 ng/mL; bt-peptide 500 ng/mL
Procedure: as §2

[19] = biological target: T2, C113T109N biotin labeled HCV core …; assay: capture EIA; Ab 15.625 ng/mL; bt-peptide 500 ng/mL
Procedure: as §2

[20] = biological target: T12, 92-133 biotin labeled HCV core peptide; assay: capture EIA; Ab 15.625 ng/mL; bt-peptide 500 ng/mL
Procedure: as §2

[21] = biological target: T13, WT1STHV biotin labeled HCV core peptide; assay: capture EIA; Ab 15.625 ng/mL; bt-peptide 500 ng/mL
Procedure: as §2

B1: Neo4 mouse monoclonal antibody (antibody, V domains shown)
VH: QIQLKESGPAVIKPSQSLSLTCIVSGFSITSSVYCWQWIRQPPGKGLEWMGRICYDGSVDYSPSITSRGTISRDTSLNKVFFQLSSVTNEDTAMYYCSRENHIDYYDTTYPSFDVWGAGTTVTVSS
VL: DIVLTQSPASLIVSLGQRATISCRASKSVNEYGYTYMHWYQQKPGLPPKLLIYLASNLDSGVPARFSGSGSGTDFTLNIHPVEEEDAATYYCQHSRELPYTFGGGTKLEIKR
notes: Mouse hybridoma antibody, isotype IgG1, purified with Protein G; also called HCV Neo4
- binding result [1]: no binding
- binding result [2]: no binding
- OD (A492 nm) [3]: 0.04 OD
- OD (A492 nm) [4]: 1.03 OD
- OD (A492 nm) [5]: 0.96 OD
- OD (A492 nm) [6]: 0.93 OD
- OD (A492 nm) [7]: 0.96 OD
- OD (A492 nm) [8]: 1.01 OD
- OD (A492 nm) [9]: 0.97 OD
- signal at 492 nm [10]: 0.0619 A492
- signal at 492 nm [11]: 0.0644 A492
- signal at 492 nm [12]: 0.0584 A492
- signal at 492 nm [13]: 0.0784 A492
- signal at 492 nm [14]: 0.0978 A492
- signal at 492 nm [15]: 0.22 A492
- signal at 492 nm [16]: 0.0771 A492
- signal at 492 nm [17]: 0.25 A492
- signal at 492 nm [18]: 0.0697 A492
- signal at 492 nm [19]: 0.0736 A492
- signal at 492 nm [20]: 0.806 A492
- signal at 492 nm [21]: 1.42 A492
